PMC9482650, “Quantitative fragmentomics allow affinity mapping of interactomes” (Nature Communications, 2022)
Numbering of substitutions follows the chain as printed.

The binders below were run against ARHGEF12, Q9NZN5-2 (assay: holdup assay). Conditions: plain residues with an end cap or a label only (N-terminal biotin on a linker: ado-ado).
Parameters: key: below the threshold = too weak to quantify, mostly under pKd 3.1 to 4

Chain of ARHGEF12, Q9NZN5-2 (Q9NZN5 other isoform, or with tags, fused parts or gaps): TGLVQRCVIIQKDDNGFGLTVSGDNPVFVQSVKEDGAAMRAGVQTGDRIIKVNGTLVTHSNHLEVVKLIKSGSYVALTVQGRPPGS

Row | pKd | Binder
1 | below the threshold | FLVTEFNVML [DFNB31, Q9P202]

What follows are binders tested against DLG1_2, Q12959 (assay: holdup assay). Conditions: plain residues with an end cap or a label only (N-terminal biotin on a linker: ado-ado).
Parameters: key: below the threshold = too weak to quantify, mostly under pKd 3.1 to 4

Chain of DLG1_2, Q12959 (Q12959 314-412): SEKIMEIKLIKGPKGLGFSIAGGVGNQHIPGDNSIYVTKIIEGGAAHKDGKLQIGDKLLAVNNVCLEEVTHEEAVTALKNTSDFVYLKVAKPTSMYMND

Row | pKd | Binder
2 | below the threshold | FLVTEFNVML [DFNB31, Q9P202]

What follows are binders tested against T1, DLG3_1, Q92796 (assay: holdup assay). Conditions: plain residues with an end cap or a label only (N-terminal biotin on a linker: ado-ado).
T1 sequence (Q92796 125-227, limits assumed, looked up): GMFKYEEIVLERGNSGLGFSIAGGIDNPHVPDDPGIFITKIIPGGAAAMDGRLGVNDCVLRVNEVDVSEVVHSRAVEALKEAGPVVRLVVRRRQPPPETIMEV
Parameters: key: below the threshold = too weak to quantify, mostly under pKd 3.1 to 4

Row | pKd | Binder
3 | below the threshold | FLVTEFNVML [DFNB31, Q9P202]

What follows are binders tested against T2, DLG3_3, Q92796 (assay: holdup assay). Conditions: plain residues with an end cap or a label only (N-terminal biotin on a linker: ado-ado).
T2 sequence (Q92796 374-475, limits assumed, looked up): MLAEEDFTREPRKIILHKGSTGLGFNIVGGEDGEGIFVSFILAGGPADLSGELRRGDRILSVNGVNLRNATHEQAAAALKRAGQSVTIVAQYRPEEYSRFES
Parameters: key: below the threshold = too weak to quantify, mostly under pKd 3.1 to 4

Row | pKd | Binder
4 | below the threshold | FLVTEFNVML [DFNB31, Q9P202]

These binders were tested against DLG5_1, Q8TDM6 (assay: holdup assay). Conditions: plain residues with an end cap or a label only (N-terminal biotin on a linker: ado-ado).
Parameters: key: below the threshold = too weak to quantify, mostly under pKd 3.1 to 4

Chain of DLG5_1, Q8TDM6 (Q8TDM6 617-713): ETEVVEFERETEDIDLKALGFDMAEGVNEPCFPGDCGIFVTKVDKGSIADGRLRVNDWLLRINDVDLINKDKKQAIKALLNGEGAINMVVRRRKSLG

Row | pKd | Binder
5 | below the threshold | FLVTEFNVML [DFNB31, Q9P202]

These binders were tested against T3, DVL3, Q92997 (assay: holdup assay). Conditions: plain residues with an end cap or a label only (N-terminal biotin on a linker: ado-ado).
T3 sequence (Q92997 244-331, limits assumed, looked up): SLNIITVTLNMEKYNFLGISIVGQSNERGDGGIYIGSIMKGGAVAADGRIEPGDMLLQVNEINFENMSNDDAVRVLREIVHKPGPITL
Parameters: key: below the threshold = too weak to quantify, mostly under pKd 3.1 to 4

Row | pKd | Binder
6 | 3.66 | FLVTEFNVML [DFNB31, Q9P202]

These binders were tested against FRMPD2_1, Q68DX3 (assay: holdup assay). Conditions: plain residues with an end cap or a label only (N-terminal biotin on a linker: ado-ado).
Parameters: key: below the threshold = too weak to quantify, mostly under pKd 3.1 to 4

Chain of FRMPD2_1, Q68DX3 (Q68DX3 770-861): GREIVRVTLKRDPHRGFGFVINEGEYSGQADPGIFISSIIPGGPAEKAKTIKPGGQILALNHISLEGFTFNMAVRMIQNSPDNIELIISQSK

Row | pKd | Binder
7 | below the threshold | FLVTEFNVML [DFNB31, Q9P202]

The binders below were run against GOPC, Q9HD26 (assay: holdup assay). Conditions: plain residues with an end cap or a label only (N-terminal biotin on a linker: ado-ado).
Parameters: key: below the threshold = too weak to quantify, mostly under pKd 3.1 to 4

Row | pKd | Binder
8 | below the threshold | FLVTEFNVML [DFNB31, Q9P202]

What follows are binders tested against GORASP2, Q9H8Y8 (assay: holdup assay). Conditions: plain residues with an end cap or a label only (N-terminal biotin on a linker: ado-ado).
Parameters: key: below the threshold = too weak to quantify, mostly under pKd 3.1 to 4

Row | pKd | Binder
9 | below the threshold | FLVTEFNVML [DFNB31, Q9P202]

Each binder was assayed against GRASP, Q7Z6J2 (assay: holdup assay). Conditions: plain residues with an end cap or a label only (N-terminal biotin on a linker: ado-ado).
Parameters: key: below the threshold = too weak to quantify, mostly under pKd 3.1 to 4

Chain of GRASP, Q7Z6J2 (Q7Z6J2 96-193): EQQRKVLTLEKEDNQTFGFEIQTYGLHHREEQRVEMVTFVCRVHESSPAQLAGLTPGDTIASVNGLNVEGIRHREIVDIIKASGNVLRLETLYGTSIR

Row | pKd | Binder
10 | 3.72 | FLVTEFNVML [DFNB31, Q9P202]

These binders were tested against GRID2IP_1, A4D2P6 (assay: holdup assay). Conditions: plain residues with an end cap or a label only (N-terminal biotin on a linker: ado-ado).
Parameters: key: below the threshold = too weak to quantify, mostly under pKd 3.1 to 4

Chain of GRID2IP_1, A4D2P6 (A4D2P6 1-87): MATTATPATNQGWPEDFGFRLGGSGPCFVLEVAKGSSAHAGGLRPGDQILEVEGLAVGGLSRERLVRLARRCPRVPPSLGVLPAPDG

Row | pKd | Binder
11 | below the threshold | FLVTEFNVML [DFNB31, Q9P202]

What follows are binders tested against Inadl_1, Q8NI35 (assay: holdup assay). Conditions: plain residues with an end cap or a label only (N-terminal biotin on a linker: ado-ado).
Parameters: key: below the threshold = too weak to quantify, mostly under pKd 3.1 to 4

Chain of Inadl_1, Q8NI35 (Q8NI35 113-229): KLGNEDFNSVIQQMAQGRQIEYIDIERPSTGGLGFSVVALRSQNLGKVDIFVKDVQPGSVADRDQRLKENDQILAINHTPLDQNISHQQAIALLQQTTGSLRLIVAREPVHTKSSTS

Row | pKd | Binder
12 | below the threshold | FLVTEFNVML [DFNB31, Q9P202]

These binders were tested against Inadl_10, Q8NI35 (assay: holdup assay). Conditions: plain residues with an end cap or a label only (N-terminal biotin on a linker: ado-ado).
Parameters: key: below the threshold = too weak to quantify, mostly under pKd 3.1 to 4

Chain of Inadl_10, Q8NI35 (Q8NI35 1673-1763): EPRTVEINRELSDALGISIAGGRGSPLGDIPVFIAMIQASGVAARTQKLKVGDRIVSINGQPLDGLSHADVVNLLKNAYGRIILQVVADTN

Row | pKd | Binder
13 | below the threshold | FLVTEFNVML [DFNB31, Q9P202]

These binders were tested against Inadl_5, Q8NI35 (assay: holdup assay). Conditions: plain residues with an end cap or a label only (N-terminal biotin on a linker: ado-ado).
Parameters: key: below the threshold = too weak to quantify, mostly under pKd 3.1 to 4

Chain of Inadl_5, Q8NI35 (Q8NI35 673-780): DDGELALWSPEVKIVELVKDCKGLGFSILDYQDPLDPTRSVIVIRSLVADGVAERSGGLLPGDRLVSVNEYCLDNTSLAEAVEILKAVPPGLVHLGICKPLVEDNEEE

Row | pKd | Binder
14 | below the threshold | FLVTEFNVML [DFNB31, Q9P202]

These binders were tested against Inadl_9, Q8NI35 (assay: holdup assay). Conditions: plain residues with an end cap or a label only (N-terminal biotin on a linker: ado-ado).
Parameters: key: below the threshold = too weak to quantify, mostly under pKd 3.1 to 4

Chain of Inadl_9, Q8NI35 (Q8NI35 1530-1615): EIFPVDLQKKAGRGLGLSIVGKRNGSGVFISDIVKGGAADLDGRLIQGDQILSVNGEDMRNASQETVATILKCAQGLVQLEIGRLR

Row | pKd | Binder
15 | below the threshold | FLVTEFNVML [DFNB31, Q9P202]

These binders were tested against T4, LIN7A, O14910 (assay: holdup assay). Conditions: plain residues with an end cap or a label only (N-terminal biotin on a linker: ado-ado).
T4 sequence (O14910 103-200, limits assumed, looked up): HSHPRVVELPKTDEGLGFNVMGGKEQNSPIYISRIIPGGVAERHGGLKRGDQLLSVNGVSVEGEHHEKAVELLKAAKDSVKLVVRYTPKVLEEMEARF
Parameters: key: below the threshold = too weak to quantify, mostly under pKd 3.1 to 4

Row | pKd | Binder
16 | below the threshold | FLVTEFNVML [DFNB31, Q9P202]

Each binder was assayed against T5, LIN7B, Q9HAP6 (assay: holdup assay). Conditions: plain residues with an end cap or a label only (N-terminal biotin on a linker: ado-ado).
T5 sequence (Q9HAP6 88-185, limits assumed, looked up): T4 sequence (O14910 103-200, limits assumed, looked up) with S2A, V20I, I35V, E42D, H65Q, K77Q, D78G, K89R
Parameters: key: below the threshold = too weak to quantify, mostly under pKd 3.1 to 4

Row | pKd | Binder
17 | below the threshold | FLVTEFNVML [DFNB31, Q9P202]

The binders below were run against LNX1_1, Q8TBB1 (assay: holdup assay). Conditions: plain residues with an end cap or a label only (N-terminal biotin on a linker: ado-ado).
Parameters: key: below the threshold = too weak to quantify, mostly under pKd 3.1 to 4

Chain of LNX1_1, Q8TBB1 (Q8TBB1 261-371): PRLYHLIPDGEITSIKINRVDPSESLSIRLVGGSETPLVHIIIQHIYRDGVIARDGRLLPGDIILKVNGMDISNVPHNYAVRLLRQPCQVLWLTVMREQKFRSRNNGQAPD

Row | pKd | Binder
18 | below the threshold | FLVTEFNVML [DFNB31, Q9P202]

These binders were tested against MAGI2_2, Q86UL8 (assay: holdup assay). Conditions: plain residues with an end cap or a label only (N-terminal biotin on a linker: ado-ado).
Parameters: key: below the threshold = too weak to quantify, mostly under pKd 3.1 to 4

Chain of MAGI2_2, Q86UL8 (Q86UL8 410-522): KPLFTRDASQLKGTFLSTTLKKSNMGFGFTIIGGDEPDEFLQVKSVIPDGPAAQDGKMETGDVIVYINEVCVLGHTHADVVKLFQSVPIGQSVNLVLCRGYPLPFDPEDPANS

Row | pKd | Binder
19 | below the threshold | FLVTEFNVML [DFNB31, Q9P202]

Each binder was assayed against MAGI2_6, Q86UL8 (assay: holdup assay). Conditions: plain residues with an end cap or a label only (N-terminal biotin on a linker: ado-ado).
Parameters: key: below the threshold = too weak to quantify, mostly under pKd 3.1 to 4

Chain of MAGI2_6, Q86UL8 (Q86UL8 1141-1229): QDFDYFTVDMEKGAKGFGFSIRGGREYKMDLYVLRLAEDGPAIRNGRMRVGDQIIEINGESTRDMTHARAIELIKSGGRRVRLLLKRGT

Row | pKd | Binder
20 | 4.78 | FLVTEFNVML [DFNB31, Q9P202]

The binders below were run against MAST2, Q6P0Q8 (assay: holdup assay). Conditions: plain residues with an end cap or a label only (N-terminal biotin on a linker: ado-ado).
Parameters: key: below the threshold = too weak to quantify, mostly under pKd 3.1 to 4

Chain of MAST2, Q6P0Q8 (Q6P0Q8 1099-1202): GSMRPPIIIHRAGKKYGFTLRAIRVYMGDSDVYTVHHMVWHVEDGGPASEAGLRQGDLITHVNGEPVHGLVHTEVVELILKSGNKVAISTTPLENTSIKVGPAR

Row | pKd | Binder
21 | 5.15 | FLVTEFNVML [DFNB31, Q9P202]

The binders below were run against T6, MPDZ_12, O75970 (assay: holdup assay). Conditions: plain residues with an end cap or a label only (N-terminal biotin on a linker: ado-ado).
T6 sequence (O75970 1857-1958, limits assumed, looked up): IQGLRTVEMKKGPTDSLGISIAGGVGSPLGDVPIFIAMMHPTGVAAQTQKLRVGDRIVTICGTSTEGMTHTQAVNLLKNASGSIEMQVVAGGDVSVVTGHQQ
Parameters: key: below the threshold = too weak to quantify, mostly under pKd 3.1 to 4

Row | pKd | Binder
22 | below the threshold | FLVTEFNVML [DFNB31, Q9P202]

These binders were tested against NHERF2_2, Q15599 (assay: holdup assay). Conditions: plain residues with an end cap or a label only (N-terminal biotin on a linker: ado-ado).
Parameters: key: below the threshold = too weak to quantify, mostly under pKd 3.1 to 4

Chain of NHERF2_2, Q15599 (Q15599 142-238): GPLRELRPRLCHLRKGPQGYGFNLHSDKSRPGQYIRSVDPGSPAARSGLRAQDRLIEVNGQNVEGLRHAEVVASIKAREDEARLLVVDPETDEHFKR

Row | pKd | Binder
23 | 4.04 | FLVTEFNVML [DFNB31, Q9P202]

Each binder was assayed against NHERF4_4, Q86UT5 (assay: holdup assay). Conditions: plain residues with an end cap or a label only (N-terminal biotin on a linker: ado-ado).
Parameters: key: below the threshold = too weak to quantify, mostly under pKd 3.1 to 4

Chain of NHERF4_4, Q86UT5 (Q86UT5 464-550): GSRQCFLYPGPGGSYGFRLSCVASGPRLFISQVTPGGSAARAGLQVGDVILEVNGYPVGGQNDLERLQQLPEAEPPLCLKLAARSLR

Row | pKd | Binder
24 | 4.84 | FLVTEFNVML [DFNB31, Q9P202]

These binders were tested against T7, PCLO, Q9Y6V0 (assay: holdup assay). Conditions: plain residues with an end cap or a label only (N-terminal biotin on a linker: ado-ado).
T7 sequence (Q9Y6V0 4491-4600, limits assumed, looked up): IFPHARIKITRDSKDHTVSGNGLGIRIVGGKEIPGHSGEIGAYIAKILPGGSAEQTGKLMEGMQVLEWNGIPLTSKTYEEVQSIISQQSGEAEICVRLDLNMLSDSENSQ
Parameters: key: below the threshold = too weak to quantify, mostly under pKd 3.1 to 4

Row | pKd | Binder
25 | below the threshold | FLVTEFNVML [DFNB31, Q9P202]

The binders below were run against T8, PTPN13_1, Q12923 (assay: holdup assay). Conditions: plain residues with an end cap or a label only (N-terminal biotin on a linker: ado-ado).
T8 sequence (Q12923 1088-1188, limits assumed, looked up): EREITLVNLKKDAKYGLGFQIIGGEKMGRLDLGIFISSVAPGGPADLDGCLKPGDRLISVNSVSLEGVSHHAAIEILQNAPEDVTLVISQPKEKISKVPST
Parameters: key: below the threshold = too weak to quantify, mostly under pKd 3.1 to 4

Row | pKd | Binder
26 | below the threshold | FLVTEFNVML [DFNB31, Q9P202]

These binders were tested against T9, SHANK1, Q9Y566 (assay: holdup assay). Conditions: plain residues with an end cap or a label only (N-terminal biotin on a linker: ado-ado).
T9 sequence (Q9Y566 658-767, limits assumed, looked up): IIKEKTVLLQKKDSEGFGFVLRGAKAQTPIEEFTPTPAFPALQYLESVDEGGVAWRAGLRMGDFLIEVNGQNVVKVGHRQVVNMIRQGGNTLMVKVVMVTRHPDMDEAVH
Parameters: key: below the threshold = too weak to quantify, mostly under pKd 3.1 to 4

Row | pKd | Binder
27 | 3.84 | FLVTEFNVML [DFNB31, Q9P202]

The binders below were run against T10, TX1BP3, O14907 (assay: holdup assay). Conditions: plain residues with an end cap or a label only (N-terminal biotin on a linker: ado-ado).
T10 sequence (O14907 10-122, limits assumed, looked up): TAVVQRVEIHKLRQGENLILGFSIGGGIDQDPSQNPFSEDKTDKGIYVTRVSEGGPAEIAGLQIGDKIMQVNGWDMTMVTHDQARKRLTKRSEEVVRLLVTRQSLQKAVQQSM
Parameters: key: below the threshold = too weak to quantify, mostly under pKd 3.1 to 4

Row | pKd | Binder
28 | 3.96 | FLVTEFNVML [DFNB31, Q9P202]
